According to patent US20260167699A1 (Chugai, published 2026):

Target: T1, FcγRIIIa extracellular domain, C-terminal His tag (human, UniProt P08637 17-208)
T1 construct: extracellular domain; also called 3a
Test: SPR, binding activity relative to GpH7-A5/GpH7-B3/GpL16-k0 (=100)

T1 sequence (P08637 other isoform, or with tags, fused parts or gaps): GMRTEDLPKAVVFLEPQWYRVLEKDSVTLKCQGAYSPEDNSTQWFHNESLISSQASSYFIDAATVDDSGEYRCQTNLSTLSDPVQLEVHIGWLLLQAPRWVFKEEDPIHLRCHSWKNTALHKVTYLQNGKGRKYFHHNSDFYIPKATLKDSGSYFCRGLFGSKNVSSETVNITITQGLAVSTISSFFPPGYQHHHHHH

Binder | He/Con 3a [%]
GpH7-A5/GpH7-B3 variant A330_01G/GpL16-k0 (antibody, human IgG1, kappa, He Ab; copies: 1 + 1 + 2) heavy 1: not shown heavy 2: not shown light: DIVMTQSPLSLPVTPGEPASISCQASESLVHSNRNTYLHWYLQKPGQSPQLLIYKVSNRFSGVPDRFSGSGSGTDFTLKISRVEAEDVGVYYCSQNTHVPPTFGQGTKVEIERTVAAPSVFIFPPSDEQLKSGTASVVCLLNNFYPREAKVQWKVDNALQSGNSQESVTEQDSKDSTYSLSSTLTLSKADYEKHKVYACEVTHQGLSSPVTKSFNRGEC | 87.3
GpH7-A5/GpH7-B3 variant A330_09D/GpL16-k0 (antibody, human IgG1, kappa, He Ab; copies: 1 + 1 + 2) heavy 1: not shown heavy 2: not shown light: DIVMTQSPLSLPVTPGEPASISCQASESLVHSNRNTYLHWYLQKPGQSPQLLIYKVSNRFSGVPDRFSGSGSGTDFTLKISRVEAEDVGVYYCSQNTHVPPTFGQGTKVEIERTVAAPSVFIFPPSDEQLKSGTASVVCLLNNFYPREAKVQWKVDNALQSGNSQESVTEQDSKDSTYSLSSTLTLSKADYEKHKVYACEVTHQGLSSPVTKSFNRGEC | 56.4
GpH7-A5/GpH7-B3 variant A330_07I/GpL16-k0 (antibody, human IgG1, kappa, He Ab; copies: 1 + 1 + 2) heavy 1: not shown heavy 2: not shown light: DIVMTQSPLSLPVTPGEPASISCQASESLVHSNRNTYLHWYLQKPGQSPQLLIYKVSNRFSGVPDRFSGSGSGTDFTLKISRVEAEDVGVYYCSQNTHVPPTFGQGTKVEIERTVAAPSVFIFPPSDEQLKSGTASVVCLLNNFYPREAKVQWKVDNALQSGNSQESVTEQDSKDSTYSLSSTLTLSKADYEKHKVYACEVTHQGLSSPVTKSFNRGEC | 101
GpH7-A5/GpH7-B3 variant A330_08L/GpL16-k0 (antibody, human IgG1, kappa, He Ab; copies: 1 + 1 + 2) heavy 1: not shown heavy 2: not shown light: DIVMTQSPLSLPVTPGEPASISCQASESLVHSNRNTYLHWYLQKPGQSPQLLIYKVSNRFSGVPDRFSGSGSGTDFTLKISRVEAEDVGVYYCSQNTHVPPTFGQGTKVEIERTVAAPSVFIFPPSDEQLKSGTASVVCLLNNFYPREAKVQWKVDNALQSGNSQESVTEQDSKDSTYSLSSTLTLSKADYEKHKVYACEVTHQGLSSPVTKSFNRGEC | 122
GpH7-A5/GpH7-B3 variant A330_03V/GpL16-k0 (antibody, human IgG1, kappa, He Ab; copies: 1 + 1 + 2) heavy 1: not shown heavy 2: not shown light: DIVMTQSPLSLPVTPGEPASISCQASESLVHSNRNTYLHWYLQKPGQSPQLLIYKVSNRFSGVPDRFSGSGSGTDFTLKISRVEAEDVGVYYCSQNTHVPPTFGQGTKVEIERTVAAPSVFIFPPSDEQLKSGTASVVCLLNNFYPREAKVQWKVDNALQSGNSQESVTEQDSKDSTYSLSSTLTLSKADYEKHKVYACEVTHQGLSSPVTKSFNRGEC | 98.8
GpH7-A5/GpH7-B3 variant A330_04F/GpL16-k0 (antibody, human IgG1, kappa, He Ab; copies: 1 + 1 + 2) heavy 1: not shown heavy 2: not shown light: DIVMTQSPLSLPVTPGEPASISCQASESLVHSNRNTYLHWYLQKPGQSPQLLIYKVSNRFSGVPDRFSGSGSGTDFTLKISRVEAEDVGVYYCSQNTHVPPTFGQGTKVEIERTVAAPSVFIFPPSDEQLKSGTASVVCLLNNFYPREAKVQWKVDNALQSGNSQESVTEQDSKDSTYSLSSTLTLSKADYEKHKVYACEVTHQGLSSPVTKSFNRGEC | 144
GpH7-A5/GpH7-B3 variant A330_10E/GpL16-k0 (antibody, human IgG1, kappa, He Ab; copies: 1 + 1 + 2) heavy 1: not shown heavy 2: not shown light: DIVMTQSPLSLPVTPGEPASISCQASESLVHSNRNTYLHWYLQKPGQSPQLLIYKVSNRFSGVPDRFSGSGSGTDFTLKISRVEAEDVGVYYCSQNTHVPPTFGQGTKVEIERTVAAPSVFIFPPSDEQLKSGTASVVCLLNNFYPREAKVQWKVDNALQSGNSQESVTEQDSKDSTYSLSSTLTLSKADYEKHKVYACEVTHQGLSSPVTKSFNRGEC | 82.8
GpH7-A5/GpH7-B3 variant A330_06M/GpL16-k0 (antibody, human IgG1, kappa, He Ab; copies: 1 + 1 + 2) heavy 1: not shown heavy 2: not shown light: DIVMTQSPLSLPVTPGEPASISCQASESLVHSNRNTYLHWYLQKPGQSPQLLIYKVSNRFSGVPDRFSGSGSGTDFTLKISRVEAEDVGVYYCSQNTHVPPTFGQGTKVEIERTVAAPSVFIFPPSDEQLKSGTASVVCLLNNFYPREAKVQWKVDNALQSGNSQESVTEQDSKDSTYSLSSTLTLSKADYEKHKVYACEVTHQGLSSPVTKSFNRGEC | 139
